Assay results as given in publication PMC8643695 (Nucleic Acids Research, 2021).
Read-outs that look alike come from different tables or passages of the source.

Experiments:
[1] = system: SmCstR (Streptococcus mitis SVGS_061); assay: fluorescence anisotropy; conditions: 10 nM dsDNA, 25 mM Tris-HCl, 200 mM NaCl, 2 mM EDTA, 2 mM TCEP, pH 8.0, 25 C
[2] = target: C9A SpCstR C9A (Streptococcus pneumoniae D39) (UniProt A0A0H2ZNA4); assay: fluorescence anisotropy; conditions: 10 nM dsDNA, 25 mM Tris-HCl, 200 mM NaCl, 2 mM EDTA, 2 mM TCEP, pH 8.0, 25 C
C9R SpCstR = C9R SpCstR (Streptococcus pneumoniae D39, UniProt A0A0H2ZNA4 1-85, C9R); assay: fluorescence anisotropy
crystal structure [3] = target: the molecule itself; assay: crystal structure
crystal structure [4] = target: the molecule itself; assay: crystal structure; remark: listed apart in the source
crystal structure [5] = target: the molecule itself; assay: crystal structure; remark: listed apart in the source

With “TACCTCCAAATATACCCTTATGGGGTATATTAAA (double strand) [S. mitis cst operator]” the Ka [1] was 1.4e+08 M⁻¹.

For Sp adcA (AdcR) operator, the Ka [2] was 490000 M⁻¹.

B1: S. mitis cst operator (dsDNA)
DNA 1: TACCTCCAAATATACCCTTATGGGGTATATTAAA
DNA 2: TTTAATATACCCCATAAGGGTATATTTGGAGGTA
B1: binds (C9R SpCstR).

B2: selenomethionine (SeMet)-substituted C9A SpCstR (natural protein, Streptococcus pneumoniae D39)
chain: TNSKYITALKRSEGQLRGIQKMIEGDRDCADIVTQLTAVRSSVERVIEMIITENLTECINQPLDDSEAQKERLEKAIRYLIKRK
modifications: selenomethionine in place of methionine
In the case of B2, the “stoichiometry N” value (crystal structure [3]) is reported as 4.

B3: C9A/N55A S. pneumoniae CstR (locus tag SPD_0073) (natural protein, Streptococcus pneumoniae D39)
chain: TNSKYITALKRSEGQLRGIQKMIEGDRDCADIVTQLTAVRSSVERVIEMIITEALTECINQPLDDSEAQKERLEKAIRYLIKRK
B3 was tested, and the “stoichiometry N” value (crystal structure [4]) was 4.

B4: C9A S. pneumoniae CstR (locus tag SPD_0073) (natural protein, Streptococcus pneumoniae D39)
chain: TNSKYITALKRSEGQLRGIQKMIEGDRDCADIVTQLTAVRSSVERVIEMIITENLTECINQPLDDSEAQKERLEKAIRYLIKRK
B4 was tested, and the “stoichiometry N” value (crystal structure [5]) was 6.
